{"source": "patent US6713057B1", "about": "“Compositions and methods for modulating serum cholesterol” (The Johns Hopkins University, priority 1999, dated 2004)", "molecules": {"B1": {"name": "EGF: human recombinant EGF from Upstate Biotechnology (protein, UniProt P01133 23-1207, looked up)", "Pro-epidermal growth factor": "PQHWSCPEGTLAGNGNSTCVGPAPFLIFSHGNSIFRIDTEGTNYEQLVVDAGVSVIMDFHYNEKRIYWVDLERQLLQRVFLNGSRQERVCNIEKNVSGMAINWINEEVIWSNQQEGIITVTDMKGNNSHILLSALKYPANVAVDPVERFIFWSSEVAGSLYRADLDGVGVKALLETSEKITAVSLDVLDKRLFWIQYNREGSNSLICSCDYDGGSVHISKHPTQHNLFAMSLFGDRIFYSTWKMKTIWIANKHTGKDMVRINLHSSFVPLGELKVVHPLAQPKAEDDTWEPEQKLCKLRKGNCSSTVCGQDLQSHLCMCAEGYALSRDRKYCEDVNECAFWNHGCTLGCKNTPGSYYCTCPVGFVLLPDGKRCHQLVSCPRNVSECSHDCVLTSEGPLCFCPEGSVLERDGKTCSGCSSPDNGGCSQLCVPLSPVSWECDCFPGYDLQLDEKSCAASGPQPFLLFANSQDIRHMHFDGTDYGTLLSQQMGMVYALDHDPVENKIYFAHTALKWIERANMDGSQRERLIEEGVDVPEGLAVDWIGRRFYWTDRGKSLIGRSDLNGKRSKIITKENISQPRGIAVHPMAKRLFWTDTGINPRIESSSLQGLGRLVIASSDLIWPSGITIDFLTDKLYWCDAKQSVIEMANLDGSKRRRLTQNDVGHPFAVAVFEDYVWFSDWAMPSVMRVNKRTGKDRVRLQGSMLKPSSLVVVHPLAKPGADPCLYQNGGCEHICKKRLGTAWCSCREGFMKASDGKTCLALDGHQLLAGGEVDLKNQVTPLDILSKTRVSEDNITESQHMLVAEIMVSDQDDCAPVGCSMYARCISEGEDATCQCLKGFAGDGKLCSDIDECEMGVPVCPPASSKCINTEGGYVCRCSEGYQGDGIHCLDIDECQLGEHSCGENASCTNTEGGYTCMCAGRLSEPGLICPDSTPPPHLREDDHHYSVRNSDSECPLSHDGYCLHDGVCMYIEALDKYACNCVVGYIGERCQYRDLKWWELRHAGHGQQQKVIVVAVCVVVLVMLLLLSLWGAHYYRTQKLLSKNPKNPYEESSRDVRSRRPADTEDGMSSCPQPWFVVIKEHQDLKNGGQPVAGEDGQAADGSMQPTSWRQEPQLCGMGTEQGCWIPVSSDKGSCPQVMERSFHMPSYGTQTLEGGVEKPHSLLSANPLWQQRALDPPHQMELTQ", "modifications": "Pro-epidermal growth factor", "notes": "human recombinant EGF from Upstate Biotechnology"}}, "test_system": "SREBP-1", "assay": "SREBP-1 proteolysis (maturation) assay, Western immunoblot of nuclear fractions, HH-25 hepatocytes", "format": "cell-based, human", "conditions": "HH-25 hepatocytes, sterol independent", "method": "FIGS. 2A-2C illustrate effects of TNF-α sphingomyelinase and C2-ceramide on the kinetics of SREBP-1 maturation—FIGS. 2A-2C is explained in more detail as follows: Cells were maintained in media supplemented with 1 μg/ml 25-hydroxy cholesterol and 15 μg/ml cholesterol for 24 hours before the experiment. The cells were treated for the indicated time as described in materials and methods. The cells were then harvested in PBS, pelleted and frozen. Lysis and nuclear fractionation were performed as described. Nuclear fractions (50 μg of protein) were electrophoresed on a 7.5% polyacrylamide gel and transferred to a PVDF membrane. Western blotting was performed as described. Band intensity was quantified via densitometry. Error bars represent ±one standard deviation from the mean. 2A) The kinetics of SREBP maturation as measured by the increase in mature SREBP-1 are plotted. Fold increase was calculated by comparing each time point to the corresponding control value (TNF-α is represented by stippled bars, bacterial sphingomyelinase is represented by light gray bars and C2-ceramide by the dark bars.) 2B) Cells were treated with TNF-α (10 ng/ml) and prepared as described above. The bands corresponding to the precursor and mature forms of SREBP-1 were quantified and their ratio plotted. 2C) Representative Western blots from which numerical data was derived. […]", "data": [{"molecule": "B1", "values": [{"measurement": "induction of SREBP-1 maturation (increase in mature SREBP-1), in words", "value": "could not be recapitulated"}]}]}
